Laboratory results: patent CN111732654A (WUHAN INST OF BIOLOGICAL PRODUCTS CO LTD, dated 2020)

How the values were obtained:
[1] = molecular target: SARS-CoV-2刺突S1-His重组蛋白 (Sino公司，货号:40591-V08H) (SARS-CoV-2 (2019-nCoV), UniProt P0DTC2 16-685)
[2] = molecular target: SARS-CoV-2刺突蛋白S1的RBD结构域重组蛋白 (Sino公司，货号40592-V05H) (SARS-CoV-2 (2019-nCoV), UniProt P0DTC2 319-541)

B1: 单克隆抗体1E10 (人源抗SARS-CoV-2抗体1E10) (antibody, V domains shown)
VH: EVQLVQSGAEVKKPGSSVKVSCKASGGTFSSYAISWVRQAPGQGLEWMGRIIPILGIANYAQKFQGRVTITADKSTSTAYMELSSLRSEDTAVYYCAREVSDFDWLYRSHYGMDVWGQGTTVTVSS
VL: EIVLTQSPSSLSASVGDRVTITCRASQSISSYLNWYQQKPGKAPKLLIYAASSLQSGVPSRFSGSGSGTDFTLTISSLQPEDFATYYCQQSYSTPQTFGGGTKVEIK
EC50 [1]: 0.029 nM | EC50 [2]: 0.044 nM
